Assay results from patent EP4696714A1, “PREPARATION METHOD FOR NANOBODY TARGETING TISSUE FACTOR AND CONJUGATE AND USE THEREOF” (Fudan University, priority 2023, dated 2024).

B1: 5-H3-FC1 (chimeric nanobody: 5-H3 VHH fused with human Fc mutant fragment FC1) (Fc fusion)
chain: QVQLVESGGGLVQPGGSLRLSCVASGFTLANYAIGFYRRAPGKGREGVSCISRSDGDTYHVDSVKGRFTVSRDNAKNTAYLQMNSLVPEDTGVYYCRATEWCGVQDPHGYWGQGTQVTVSSEPKSSDKTHTCPPCPAPEFEGGPSVFLFPPKPKDTLMISRTPEVTCVVVDVSHEDPEVKFNWYVDGVEVHNAKTKPREEQYNSTYRVVSVLTVLHQDWLNGKEYKCKVSNKALPASIEKTISKAKGQPREPQVYTLPPSRDELTKNQVSLTCLVKGFYPSDIAVEWESNGQPENNYKTTPPVLDSDGSFFLYSKLTVDKSRWQQGNVFSCSVMHEALHNHYTQKSLSLSPGK
notes: built from the VHH and FC1
B2: 4-C05-FC1 (chimeric nanobody: 4-C05 VHH fused with human Fc mutant fragment FC1) (Fc fusion)
chain: QVQLVESGGGLVQPGGSLRLSCAASGFTLDTYAIGWIRQAPGKEREGVSCISSTDGSTYYAASVKGRFTINRDNAKNTVYLQMNSLKPEDTAVYYCAAGPGTDCPLRFDYWGQGIQVTVSSEPKSSDKTHTCPPCPAPEFEGGPSVFLFPPKPKDTLMISRTPEVTCVVVDVSHEDPEVKFNWYVDGVEVHNAKTKPREEQYNSTYRVVSVLTVLHQDWLNGKEYKCKVSNKALPASIEKTISKAKGQPREPQVYTLPPSRDELTKNQVSLTCLVKGFYPSDIAVEWESNGQPENNYKTTPPVLDSDGSFFLYSKLTVDKSRWQQGNVFSCSVMHEALHNHYTQKSLSLSPGK
notes: built from the VHH and FC1
B3: F1-A01-FC1 (chimeric nanobody: F1-A01 VHH fused with human Fc mutant fragment FC1) (Fc fusion)
chain: EVQLVESGGGLVQAGGSLRLSCAASGRAFSAYAMGWFRQAPGKEREFVAAISWSGGSTYYADSVRGRFTISRDNTKNTVYLQMNSLKPEDTAVYYCNADSLLSLLDGSRGGPGTDSGSWGQGTQVTVSSEPKSSDKTHTCPPCPAPEFEGGPSVFLFPPKPKDTLMISRTPEVTCVVVDVSHEDPEVKFNWYVDGVEVHNAKTKPREEQYNSTYRVVSVLTVLHQDWLNGKEYKCKVSNKALPASIEKTISKAKGQPREPQVYTLPPSRDELTKNQVSLTCLVKGFYPSDIAVEWESNGQPENNYKTTPPVLDSDGSFFLYSKLTVDKSRWQQGNVFSCSVMHEALHNHYTQKSLSLSPGK
notes: it is built from the VHH and FC1 as in 4-A02-FC1
B4: 5-C12-FC1 (chimeric nanobody: 5-C12 VHH fused with human Fc mutant fragment FC1) (Fc fusion)
chain: QVQLVESGGGLAQAGGSLRLSCAGSGRTFSTDAMGWFRQAPGKEREFVAAINWSGGSTYYADSVKGRFTISRDNAKNTVYLQMNSVKPEDTAVYYCVADSLLALLDGSRGGPGTDSDSWGQGTQVTVSSEPKSSDKTHTCPPCPAPEFEGGPSVFLFPPKPKDTLMISRTPEVTCVVVDVSHEDPEVKFNWYVDGVEVHNAKTKPREEQYNSTYRVVSVLTVLHQDWLNGKEYKCKVSNKALPASIEKTISKAKGQPREPQVYTLPPSRDELTKNQVSLTCLVKGFYPSDIAVEWESNGQPENNYKTTPPVLDSDGSFFLYSKLTVDKSRWQQGNVFSCSVMHEALHNHYTQKSLSLSPGK
notes: built from the VHH and FC1
B5: 4-E04-FC1 (chimeric nanobody: 4-E04 VHH fused with human Fc mutant fragment FC1) (Fc fusion)
chain: AVQLVESGGGLVQPGGSLSLSCAASEMISSTYIMGWYRRSPGKERELVAVISGDGVTHYGDFVKGRFAISRDNVKNAVYLKMNFLTPEDTAVYYCNAAGRRNHWGQGTQVTVSSEPKSSDKTHTCPPCPAPEFEGGPSVFLFPPKPKDTLMISRTPEVTCVVVDVSHEDPEVKFNWYVDGVEVHNAKTKPREEQYNSTYRVVSVLTVLHQDWLNGKEYKCKVSNKALPASIEKTISKAKGQPREPQVYTLPPSRDELTKNQVSLTCLVKGFYPSDIAVEWESNGQPENNYKTTPPVLDSDGSFFLYSKLTVDKSRWQQGNVFSCSVMHEALHNHYTQKSLSLSPGK
notes: built from the VHH and FC1

The binders below were run against T1, TF on the surface of tumor cells (MDA-MB-231, HPAF-II, HCC1806, BxPC3, HCC44, PC9, H1975 and other … (UniProt P13726 33-295, limits assumed)) (assay: flow cytometry on MDA-MB-231 cells, PE-labeled secondary antibody).
T1 construct: whole, on cells; the cell lines are human tumour lines; also called TF on cell surface; tumor cell surface TF

| Binder | EC50 [µg/mL] |
| --- | --- |
| B1 | 0.25 |
| B2 | 0.7 |
| B3 | 0.75 |
| B4 | 0.47 |
| B5 | 0.13 |

These binders were tested against T2, human TF extracellular domain protein (TF-ECD, Met 1-Glu 251) (human, UniProt P13726 33-251) (assay: ForteBio OCTET R2; His-tagged antigen on NTA sensor, nanobody-Fc 25-1.56 nM in solution, 25°C).
T2 construct: range 1-251; also called human TF-ECD; not shown: His tag (protein captured on an NTA sensor as 'FDYKSD-01-His')

| Binder | Kd [nM] |
| --- | --- |
| B1 | 0.45 |
| B2 | 0.2 |
| B3 | 4.37 |
| B4 | 0.001 |
| B5 | 7.04 |
